Measurements reported in PMC11104609, “Discovery of allosteric regulators with clinical potential to stabilize alpha-L-iduronidase in mucopolysaccharidosis type I” (PLOS ONE, 2024).

What was measured:
IDUA [1] = biological target: T1, IDUA (Homo sapiens, UniProt P35475); experiment: IDUA enzymatic activity in patient-derived fibroblasts after rhIDUA with or without compound (4-MUI substrate); assay type: cell-based; set-up: Institute of Biotechnology and Biomedicine, Autonomous University of Barcelona (UAB), Bellaterra, Spain; conditions: rhIDUA 1.25 nM alone
T1 sequence (P35475 28-653): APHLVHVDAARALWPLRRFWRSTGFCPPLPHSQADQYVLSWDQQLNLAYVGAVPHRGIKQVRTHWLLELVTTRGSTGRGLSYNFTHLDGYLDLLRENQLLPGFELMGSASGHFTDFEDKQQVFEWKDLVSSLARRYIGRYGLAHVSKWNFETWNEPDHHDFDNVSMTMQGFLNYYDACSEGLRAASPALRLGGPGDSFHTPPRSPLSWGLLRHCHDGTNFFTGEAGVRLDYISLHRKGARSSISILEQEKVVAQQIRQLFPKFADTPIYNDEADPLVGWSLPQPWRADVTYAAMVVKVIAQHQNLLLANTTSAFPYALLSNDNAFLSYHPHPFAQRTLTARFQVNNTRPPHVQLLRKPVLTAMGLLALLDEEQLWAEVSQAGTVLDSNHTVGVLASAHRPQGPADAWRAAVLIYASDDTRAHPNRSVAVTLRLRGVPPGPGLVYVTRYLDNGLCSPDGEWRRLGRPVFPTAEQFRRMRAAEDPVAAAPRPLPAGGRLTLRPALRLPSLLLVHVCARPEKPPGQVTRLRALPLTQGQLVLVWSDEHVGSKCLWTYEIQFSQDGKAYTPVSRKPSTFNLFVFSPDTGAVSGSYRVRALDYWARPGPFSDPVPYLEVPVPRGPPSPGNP
Method: Fibroblasts derived from Hurler (GM00798) and Hurler/Scheie patients (GM02845, GM00512, GM01898, GM00963) were purchased from Coriell (Camden, NJ). Fibroblasts were cultured in Dulbecco’s modified Eagle’s medium (DMEM, Gibco) supplemented with 10% inactivated fetal bovine serum (FBS, Gibco) and 1% penicillin-streptomycin (Thermo Fisher Scientific, Waltham, MA, USA) (growth medium) at 37 °C under 5% CO2. The effect of the protein and/or compound in enhancing IDUA enzymatic activity was evaluated as follows: The specified patient-derived fibroblasts were seeded at 4x10^4 cells per well in 12-well cell culture plates in growth medium. Subsequently, cells were incubated with indicated dose of rhIDUA (obtained from the Institute of Biotechnology and Biomedicine in the UAB, Bellaterra, Spain) in the absence or presence of the compound #18 (GT-01803) for the specified incubation times at 50 μM. After incubation, cells were washed with PBS and detached using Trypsin-EDTA solution (Sigma Aldrich, St. Louis, MO, USA) to prepare cell pellets. The pellets were stored at -80 °C until activity assays were performed. IDUA activity in cell lysates was measured using 4-methylumbelliferyl IDUA substrate (4-MUI, Glycosynth Ltd., #44076, Warrington, UK). Briefly, lysates were resuspended in 120 μL of 0.9% NaCl containing 0.01% Triton X-100 lysis buffer to promote membrane disruption. Next, the cell suspension was sonicated and centrifuged to pellet insoluble materials. Then, 25 μL of lysates were mixed with 25 μL of 200 μM 4-MUI substrate solution in 0.4 M sodium formate, pH 3.5, 0.2% Triton X-100 buffer and incubated for 60 mins at 37 °C. The reaction was stopped by adding 200 μL of 0.5 M Glycine/0.3 M NaOH buffer, pH 10. The liberated 4-methylumbelliferone (4-MU) was measured on a Glomax® Discover microplate reader with excitation at 340 nm and emission at 460 nm. Protein quantification was determined using Pierce BCA Protein Assay Kit (Thermo Fisher Scientific, Waltham, MA, USA). Measurements were interpolated in a 4-MU standard curve and normalised by protein quantity.
For Fig 6A, rhIDUA concentrations of 0.187, 0.375 and 1.25 nM were tested in GM02845 fibroblasts over a 96-hour period, both in the presence and absence of the compound #18 (GT-01803) at 50 μM. In Fig 6B, 1.25 nM of rhIDUA was evaluated in GM02845, GM00798, GM00512, and GM00963 fibroblasts for 96h, with and without the compound #18 (GT-01803) at 50 μM. In Fig 6C, a concentration of 1.25 nM of the protein was applied to fibroblasts for 4, 8, 24 and 96h, with and without the compound #18 (GT-01803) at 50 μM.

IDUA [2] = biological target: T1, IDUA; experiment: Denaturation prevention (isothermal denaturation) assay with SYPRO Orange; assay type: binding; set-up: purchased R&D Systems; conditions: pH 7.0 and 37 °C, no compound
Method: The capacity of the compounds to stabilize IDUA in neutral pH buffer was assessed using the denaturation prevention assay. Briefly, rhIDUA (obtained from the Institute of Biotechnology and Biomedicine in the UAB, Bellaterra, Spain) was combined to a final concentration of 1 μM with 5X SYPRO Orange and 30 μM of the corresponding compound in a final reaction volume of 25 μL in 100 mM Hepes, 20 mM MgCl2, pH 7 buffer, or 25 mM NaAc, 150 mM NaCl, pH 5.2. Reactions were incubated at 37 °C, and SYPRO Orange fluorescence intensity was monitored at the indicated time points using Glomax® Discover microplate reader (Promega, Madison, WI, USA). Two independent experiments in triplicate at one concentration (30μM) of compound #18 (GT-01803) were performed for denaturation prevention assays.

- mean IDUA cell activity at 96h (IDUA [1]; GM02845 fibroblasts (Fig 6C)): 75.63 nmol/h/mg
- mean IDUA cell activity (IDUA [1]; GM02845 fibroblasts, 96 h (Fig 6A)): 53.37 nmol/h/mg
- stability of rhIDUA at physiological conditions (IDUA [2]): unstable
B1: rhIDUA: recombinant human alpha-L-iduronidase, enzyme replacement therapy protein (protein, UniProt P35475 28-653, looked up)
Alpha-L-iduronidase: T1 sequence (P35475 28-653)
